In patent US20050153896A1 (published 2005):
Ends that are not written are not given here.

Experiments:
[1] = target: Aβ 1-42 (beta-amyloid protein 1-42), pre-formed fibrils; assay: cell-based or functional assay
[2] = target: Aβ (beta-amyloid protein, length not stated at the place); assay: cell-based or functional assay
[3] = target: T1, Aβ 1-40 (beta-amyloid protein 1-40); assay: solid phase binding immunoassay; ~55 kDa laminin fragment immobilized on microtiter plates, increasing concentrations of Aβ (1-40)
T1 construct: Bought from Bachem; Residues 1-40 are counted on Aβ itself; also called Alzheimer's Aβ

| Binder | disruption of pre-formed Aβ 1-42 fibrils (Thioflavin T fluorometry), Aβ:peptide molar ratio 1:10 [1] [%] | inhibition of Aβ fibril formation, Aβ:peptide molar ratio 1:1 [2] [%] | Kd [3] [nM] |
| --- | --- | --- | --- |
| RKRLQVQLSIRT-NH2 [AG73 peptide (laminin alpha-1 chain globular domain-derived peptide)] | 81 | 50 | – |
| ~55 kDa laminin fragment obtained by elastase digestion of EHS mouse laminin (other, UniProt P19137 2690-3083, looked up, domain: C-terminal globular domains of the laminin A1 chain; also called ~55 kilodalton laminin fragment; ~55 kDa fragment of laminin) HREHGELPPEPPTLPQPELCAVDTAPGYVAGAHQFGLSQNSHLVLPLNQSDVRKRLQVQLSIRTFASSGLIYYVAHQNQMDYATLQLQEGRLHFMFDLGKGRTKVSHPALLSDGKWHTVKTEYIKRKAFMTVDGQESPSVTVVGNATTLDVERKLYLGGLPSHYRARNIGTITHSIPACIGEIMVNGQQLDKDRPLSASAVDRCYVVAQEGTFFEGSGYAALVKEGYKVRLDLNITLEFRTTSKNGVLLGISSAKVDAIGLEIVDGKVLFHVNNGAGRITATYQPRAARALCDGKWHTLQAHKSKHRIVLTVDGNSVRAESPHTHSTSADTNDPIYVGGYPAHIKQNCLSSRASFRGCVRNLRLSRGSQVQSLDLSRAFDLQGVFPHSCPGPEP | – | – | 2 |
